# Measurements: the supplement of paper PMC7877785
# ± gives the uncertainty stated by the source.
# Assay: self-splicing fitness, log relative to wild type (ln ratio); higher = more splicing; Tetrahymena group I intron in knt gene, E. coli kanamycin selection, DiMSum; sequences stand for … in CUCUCU…GGAGGGAAAAGUUAUCAGGCAUGCACCUGGUAGCUAGUCUUUAAACCAAUAGAUUGCAUCGGUUUAAAAGGCAAGACCGUCAAAUUGCGGGAAAGGGGUCAACAGCCGUUCAGUACCAAGUCUCAGGGGAAACUUUGAGAUGGCCUUGCAAAGGGUAUGGUAAUAAGCUGACGGACAUGGUCCUAACCACGCAGCCAAGUCCUAAGUCAACAGAUCUUCUGUUGAUAUGGAUGCAGUUCACAGACUAAAUGUCGGUCGGGGAAGAUGUAUUCUUCUCAUAAGAUAUAGUCGGACCUCUCCUUAAUGGGAGCUAGCGGAUGAAGUGAUGCAACACUGGAGCCGCUGGGAACUAAUUUGUAUGCGAAAGUAUAUUGAUUAGUUUUGGAGUACUCGUGGUCG
# Procedure, shortened: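 Pooled colonies went to amplicon sequencing on an Illumina HiSeq 2500 after six replicate transformations. The plates were LB agar with 100 μg/mL carbenicillin, 50 μM IPTG and 0.2% rhamnose, with or without 25 μg/mL kanamycin, incubated overnight at 37°C or 30°C. The E. coli BL21(DE3) library had all eight P1ex-region intron nucleotides randomised, the intron placed in the knt kanamycin-resistance gene on pET-22b(+). DiMSum fitness is the error-weighted combination of replicate fold changes, kanamycin against none, normalised to wild type.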
Sequence,self-splicing fitness (ln) (30 °C),self-splicing fitness (ln) (37 °C)
UACUAGCAAUAUUACGCAUC,-2.36 ± 0.14,-1.53 ± 0.18
UACUAGCAAUAUUACGCCUG,-0.00481 ± 0.11,1.03 ± 0.14
UACUAGCAAUAUUACGCGUU,-2.33 ± 0.11,-0.827 ± 0.1
UACUAGCAAUAUUACGGAAC,-3.78 ± 0.34,-3.03 ± 0.32
UACUAGCAAUAUUACGGGAG,-2.3 ± 0.11,-1.19 ± 0.1
UACUAGCAAUAUUACGGGCU,-3.52 ± 0.28,-2.87 ± 0.34
UACUAGCAAUAUUACGGUCU,-1.3 ± 0.094,-0.2 ± 0.13
UACUAGCAAUAUUACGUACC,-2.24 ± 0.17,-1.72 ± 0.23
UACUAGCAAUAUUACGUGGA,-3.03 ± 0.22,-2.47 ± 0.21
UACUAGCAAUAUUACGUUGU,-2.48 ± 0.17,-2.21 ± 0.17
UAGAAGCAAUAUUACGAAUU,-2.42 ± 0.46,-1.29 ± 0.27
UAGAAGCAAUAUUACGACAU,-1.569 ± 0.014,-0.76 ± 0.033
UAGAAGCAAUAUUACGACGU,-1.27 ± 0.1,-0.768 ± 0.098
UAGAAGCAAUAUUACGACUA,-0.222 ± 0.11,0.71 ± 0.14
UAGAAGCAAUAUUACGAGAC,-2.67 ± 0.35,-1.99 ± 0.3
UAGAAGCAAUAUUACGAUGG,-1.84 ± 0.097,-1.32 ± 0.12
UAGAAGCAAUAUUACGAUUA,-0.441 ± 0.08,-0.0749 ± 0.093
UAGAAGCAAUAUUACGCAGG,-2.7 ± 0.15,-2.19 ± 0.15
UAGAAGCAAUAUUACGCCCG,-0.762 ± 0.18,0.487 ± 0.23
UAGAAGCAAUAUUACGCCUG,-0.128 ± 0.091,0.251 ± 0.12
UAGAAGCAAUAUUACGCGGU,-4.94 ± 0.42,-2.37 ± 0.24
UAGAAGCAAUAUUACGCGUC,-2.53 ± 0.18,-1.56 ± 0.18
UAGAAGCAAUAUUACGCUAC,–,-2.23 ± 0.31
UAGAAGCAAUAUUACGGAAA,-2.02 ± 0.17,-1.41 ± 0.24

Sequence,self-splicing fitness (ln) (30 °C),self-splicing fitness (ln) (37 °C)
UAGAAGCAAUAUUACGGCCA,-0.205 ± 0.077,-0.611 ± 0.081
UAGAAGCAAUAUUACGGGGU,-3.13 ± 0.17,-1.27 ± 0.22
UAGAAGCAAUAUUACGGUCA,-0.346 ± 0.095,-0.338 ± 0.11
UAGAAGCAAUAUUACGGUCC,-1.92 ± 0.22,-1.57 ± 0.2
UAGAAGCAAUAUUACGGUGU,-3.23 ± 0.14,-3.06 ± 0.15
UAGAAGCAAUAUUACGUAGC,-3.74 ± 0.26,-2.43 ± 0.23
UAGAAGCAAUAUUACGUGAG,-0.573 ± 0.06,-0.716 ± 0.079
UAGAAGCAAUAUUACGUUGG,-2.54 ± 0.14,-1.55 ± 0.14
UAGAAGCAAUAUUACGUUGU,-4.33 ± 0.18,-2.47 ± 0.14
UAGCAGCAAUAUUACGAAGU,-1.64 ± 0.13,-1.59 ± 0.3
UAGCAGCAAUAUUACGAAUU,-2.58 ± 0.18,-2.66 ± 0.24
UAGCAGCAAUAUUACGACCU,-0.287 ± 0.13,0.328 ± 0.13
UAGCAGCAAUAUUACGAUAA,-1.07 ± 0.12,0.133 ± 0.13
UAGCAGCAAUAUUACGAUCA,0.112 ± 0.088,0.169 ± 0.099
UAGCAGCAAUAUUACGAUGA,-0.884 ± 0.069,-0.42 ± 0.066
UAGCAGCAAUAUUACGCAAU,-2.82 ± 0.13,-1.68 ± 0.11
UAGCAGCAAUAUUACGCACC,-0.936 ± 0.16,-0.423 ± 0.16
UAGCAGCAAUAUUACGCAGA,-1.67 ± 0.14,-1.33 ± 0.088
UAGCAGCAAUAUUACGCCCC,-1.6 ± 0.23,-1.56 ± 0.31
UAGCAGCAAUAUUACGCUGA,-2.19 ± 0.15,-1.71 ± 0.18
UAGCAGCAAUAUUACGCUGG,-2.87 ± 0.13,-2.45 ± 0.15
UAGCAGCAAUAUUACGGGAU,-4.22 ± 0.39,-2.7 ± 0.26
UAGCAGCAAUAUUACGGGGC,-3.58 ± 0.21,-3.17 ± 0.27
